{
  "source": "patent US20160311916A1",
  "about": "(ALLIGATOR BIOSCIENCE, published 2016)",
  "binders": {"B1": {"name": "antibody 1150/1151 (antibody, V domains shown)", "VH": "EVQLLESGGGLVQPGGSLRLSCAASGFTFSSYAMSWVRQAPGKGLEWVSGIGGSSSYTSYADSVKGRFTISRDNSKNTLYLQMNSLRAEDTAVYYCARYYSYHMDYWGQGTLVTVSS", "VL": "DIQMTQSPSSLSASVGDHVTITCRASQSISSYLNWYQQKPGKAPKLLIYAASSLQSGVPSRFSGSGSGTDFTLTISSLQPEDFATYYCQQYGSAPPTFGQGTKLEIK"}, "B2": {"name": "antibody 1132/1133 (antibody, V domains shown)", "VH": "B1 VH with G53S, S54Y, S55G, S56G, Y57G, S59Y, Y100V, S101N, Y102F, H103G", "VL": "B1 VL with H18R, S93R, A94N", "notes": "Re-cloned from scFv into full IgG format, made in 293 Freestyle cells"}, "B3": {"name": "antibody 1107/1108 (antibody, V domains shown)", "VH": "not shown", "VL": "B1 VL with H18R, S93V, A94Y, P96F", "notes": "as for B2"}, "B4": {"name": "antibody 1136/1137 (antibody, V domains shown)", "VH": "not shown", "VL": "DIQMTQSPSSLSASVGDRVTITCRASQSISSYLNWYQQKPGKAPKLLIYAASSLQSGVPSRFSGSGSGTDFTLTISSLQPEDFATYYCQQAYYAGLFTFGQGTKLEIK", "notes": "as for B2"}, "B5": {"name": "antibody 1134/1135 (antibody, V domains shown)", "VH": "EVQLLESGGGLVQPGGSLRLSCAASGFTFSSYAMSWVRQAPGKGLEWVSSIYSGGGGTSYADSVKGRFTISRDNSKNTLYLQMNSLRAEDTAVYYCARGPAYSSFFDYWGQGTLVTVSS", "VL": "not shown", "notes": "as for B2"}, "B6": {"name": "antibody 1146/1147 (antibody, V domains shown)", "VH": "not shown", "VL": "B1 VL with H18R, G92Y, S93Y, A94Y, P96F", "notes": "as for B2"}, "B7": {"name": "antibody 1148/1149 (antibody, V domains shown)", "VH": "not shown", "VL": "B1 VL with H18R, Y91A, G92Y, S93Y, A94F, P96H", "notes": "as for B2"}},
  "note": "Substitutions are numbered along the chain they refer to.",
  "data": [
    {"target": "T1, CD40 cys2A mouse: Human CD40 with mouse module A of domain 2 (62-77) (human; mouse, UniProt P25942 21-277)", "T1 construct": "Human/mouse chimera on FreeStyle 293-F cells; Human flanks inferred from the printed mouse range", "T1 chain": "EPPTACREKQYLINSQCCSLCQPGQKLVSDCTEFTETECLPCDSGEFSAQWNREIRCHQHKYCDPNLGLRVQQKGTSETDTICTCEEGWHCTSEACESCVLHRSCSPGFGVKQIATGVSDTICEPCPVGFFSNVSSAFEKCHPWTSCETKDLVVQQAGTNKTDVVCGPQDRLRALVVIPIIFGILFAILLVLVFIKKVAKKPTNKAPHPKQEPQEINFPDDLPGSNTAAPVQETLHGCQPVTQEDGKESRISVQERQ", "assay": "flow cytometry on 293-F cells transfected with the chimera; MFI scored + or -", "description": "(§1) Genes of CD40 human/mouse chimeras were synthesized (GenScript). The different chimeras were designed by exchanging domains or modules of the human CD40 with corresponding mouse CD40 domains or modules. The chimeras were designed after evaluation of the human and mouse sequences and 3D analysis of human CD40. The constructs were cloned into pcDNA3.1 vector (Invitrogen) using the restriction sites for NotI and HindIII. The mouse/human chimeras were transiently transfected into FreeStyle 293-F cells (Invitrogen), incubated 48 hours in FreeStyle 293 expression medium (Invitrogen) 37C, 8% CO2, 135 rpm.\n(§2) Cells were analyzed with FACS Verse (BD Biosciences). Binding to the different chimeric constructs were determined with MFI to be either positive (+) or negative (−).", "values": [
      {"binder": "B1", "binding result": "binds"},
      {"binder": "B2", "binding result": "binds"},
      {"binder": "B3", "binding result": "no binding"}
    ]},
    {"target": "T2, CD40 cys3B mouse: Human CD40 with mouse module B of domain 3 (122-143) (human; mouse, UniProt P25942 21-277)", "T2 construct": "Human/mouse chimera on FreeStyle 293-F cells; Human flanks inferred from the printed mouse range", "T2 chain": "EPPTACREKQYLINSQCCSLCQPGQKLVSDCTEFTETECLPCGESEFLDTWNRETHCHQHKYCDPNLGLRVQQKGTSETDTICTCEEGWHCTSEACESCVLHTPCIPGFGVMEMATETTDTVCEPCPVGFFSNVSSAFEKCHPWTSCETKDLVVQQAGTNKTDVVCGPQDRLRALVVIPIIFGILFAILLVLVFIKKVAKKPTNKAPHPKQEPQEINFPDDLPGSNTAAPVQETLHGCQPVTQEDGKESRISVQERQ", "assay": "flow cytometry on 293-F cells transfected with the chimera; MFI scored + or -", "description": "as §1, §2", "values": [
      {"binder": "B1", "binding result": "binds"},
      {"binder": "B2", "binding result": "binds"},
      {"binder": "B3", "binding result": "binds"}
    ]},
    {"target": "T3, CD40 cys1B mouse: Human CD40 with mouse module B of domain 1 (38-59) (human; mouse, UniProt P25942 21-277)", "T3 construct": "Human/mouse chimera on FreeStyle 293-F cells; Human flanks inferred from the printed mouse range", "T3 chain": "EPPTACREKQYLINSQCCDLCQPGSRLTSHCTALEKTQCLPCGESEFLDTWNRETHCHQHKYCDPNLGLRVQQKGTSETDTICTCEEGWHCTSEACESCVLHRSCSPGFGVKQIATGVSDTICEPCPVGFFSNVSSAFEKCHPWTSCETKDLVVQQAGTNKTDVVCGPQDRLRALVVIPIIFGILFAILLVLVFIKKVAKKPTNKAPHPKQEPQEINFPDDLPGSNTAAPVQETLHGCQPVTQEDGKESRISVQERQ", "assay": "flow cytometry on 293-F cells transfected with the chimera; MFI scored + or -", "description": "as §1, §2", "values": [
      {"binder": "B1", "binding result": "no binding"},
      {"binder": "B2", "binding result": "no binding"},
      {"binder": "B3", "binding result": "binds"}
    ]},
    {"target": "T4, murine CD40 (mouse, UniProt P27512 20-193, limits assumed)", "T4 construct": "How murine CD40 was presented in the assay is not described; also called mouse CD40", "T4 sequence (P27512 20-193 limits assumed)": "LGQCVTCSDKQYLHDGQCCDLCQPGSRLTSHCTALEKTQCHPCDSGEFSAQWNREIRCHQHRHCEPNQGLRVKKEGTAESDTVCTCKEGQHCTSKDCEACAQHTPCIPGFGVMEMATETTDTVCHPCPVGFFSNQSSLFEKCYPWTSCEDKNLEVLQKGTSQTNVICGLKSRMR", "assay": "chimeric domain mapping, flow cytometry", "description": "as §1, §2", "values": [
      {"binder": "B1", "binding result": "no binding"},
      {"binder": "B2", "binding result": "no binding"},
      {"binder": "B3", "binding result": "no binding"}
    ]},
    {"target": "T5, human CD40 (human, UniProt P25942 21-277)", "assay": "cell-based or functional assay", "units": {"Potency B cell proliferation (EC50)": "µg/mL"}, "values": [
      {"binder": "B4", "Potency B cell proliferation (EC50)": 1},
      {"binder": "B5", "Potency B cell proliferation (EC50)": 1},
      {"binder": "B1", "Potency B cell proliferation (EC50)": 0.9},
      {"binder": "B2", "Potency B cell proliferation (EC50)": 2.2},
      {"binder": "B6", "Potency B cell proliferation (EC50)": 3.6},
      {"binder": "B7", "Potency B cell proliferation (EC50)": 2.3},
      {"binder": "B3", "Potency B cell proliferation (EC50)": 0.7}
    ]},
    {"target": "T6, Fc-fused CD40 (Ancell, #504-820) (human, UniProt P25942 21-193)", "T6 construct": "Bought reagent; not shown: Fc part of the bought fusion protein", "assay": "ELISA, coated Fc-fused CD40, full IgG", "method": "(§3) Purified full IgG molecules were analysed with ELISA. High binding flat bottom LIA plates (Greiner #655074) were coated with Fc-fused CD40 (Ancell, #504-820) at 0.05 μg/ml, and milk powder were used at 3% for blocking and at 1% for dilution. The antibodies to be tested were added in serial dilutions starting at 50 μg/ml and detection was carried out using HRP conjugated goat anti human Ig-Fc (Jackson ImmunoResearch, #109-035-098) and Super Signal Pico Chemiluminescent (ThermoScientific, #37069) was used as substrate.", "units": {"EC50": "µg/mL"}, "values": [
      {"binder": "B4", "EC50": 1.4},
      {"binder": "B5", "EC50": 0.025},
      {"binder": "B1", "EC50": 0.041},
      {"binder": "B2", "EC50": 0.28},
      {"binder": "B6", "EC50": 0.58},
      {"binder": "B7", "EC50": 2.2},
      {"binder": "B3", "EC50": 0.034}
    ]},
    {"target": "T7, CD40hfc (R&Dsystems, USA) (human, UniProt P25942 21-193)", "T7 construct": "Bought reagent, amine-coupled to a CM5 chip; not shown: Fc part of the bought fusion protein", "assay": "SPR Biacore 3000, CD40hfc immobilized on CM5, antibody as analyte, 1:1 Langmuir", "method": "(§4) The affinity constants of purified antibodies were assessed by surface plasmon resonance using the Biacore 3000 instrument according to manufacturer's protocols. CD40hfc (R&Dsystems, USA) was immobilized to the BIAcore sensorchip, CM5, using conventional amine coupling. Association was followed for 3 minutes and dissociation for 12 minutes. Regeneration was performed twice using 50 mM NaOH for 30 seconds. The kinetic parameters and the affinity constants were calculated using BIAevaluation 4.1 software. The CD40 antibody clones were run over the sensor at a flow rate of 30 μl/min in HBS-P (GE, BR-1003-68) at concentration ranges between 1-100 or 1-300 nM and analyzed using 1:1 Langmuir with drifting baseline.", "units": {"Kd": "nM", "koff": "s⁻¹", "kon": "M⁻¹ s⁻¹"}, "values": [
      {"binder": "B4", "Kd": 11, "koff": 0.0095, "kon": 870000},
      {"binder": "B5", "Kd": 3.4, "koff": 0.0014, "kon": 400000},
      {"binder": "B1", "Kd": 1.5, "koff": 0.0034, "kon": "2.2e+06"},
      {"binder": "B2", "Kd": 2.4, "koff": 0.0081, "kon": "3.4e+06"},
      {"binder": "B3", "Kd": 1.3, "koff": 0.0013, "kon": "1e+06"}
    ]},
    {"target": "T7, CD40hfc (R&Dsystems, USA)", "assay": "SPR Biacore 3000, CD40hfc immobilized (summary table, Example 6)", "method": "as §4", "units": {"Kd": "nM", "koff": "s⁻¹", "kon": "M⁻¹ s⁻¹"}, "values": [
      {"binder": "B4", "Kd": 11, "koff": 0.0095, "kon": 900000},
      {"binder": "B5", "Kd": 3.4, "koff": 0.0014, "kon": 400000},
      {"binder": "B1", "Kd": 1.5, "koff": 0.0034, "kon": "2.2e+06"},
      {"binder": "B2", "Kd": 2.4, "koff": 0.0081, "kon": "3.4e+06"},
      {"binder": "B3", "Kd": 1.3, "koff": 0.0013, "kon": "1e+06"}
    ]},
    {"target": "T6, Fc-fused CD40 (Ancell, #504-820)", "assay": "CD40 binding ELISA (summary table, Example 3)", "method": "as §3", "units": {"EC50": "µg/mL"}, "values": [
      {"binder": "B4", "EC50": 1.4},
      {"binder": "B5", "EC50": 0.025},
      {"binder": "B1", "EC50": 0.041},
      {"binder": "B2", "EC50": 0.28},
      {"binder": "B6", "EC50": 0.58},
      {"binder": "B7", "EC50": 2.2},
      {"binder": "B3", "EC50": 0.034}
    ]},
    {"target": "T5, human CD40", "assay": "cell-based or functional assay", "remark": "another data set of the same source", "units": {"DC activation (index: IL-12p40 with antibody divided by IL-12p40 with isotype control)": "index"}, "values": [
      {"binder": "B4", "B cell proliferation": 1},
      {"binder": "B5", "B cell proliferation": 1},
      {"binder": "B1", "B cell proliferation (see Example 3)": 0.9, "DC activation (index: IL-12p40 with antibody divided by IL-12p40 with isotype control)": 7.8},
      {"binder": "B2", "B cell proliferation (see Example 3)": 2.2, "DC activation (index: IL-12p40 with antibody divided by IL-12p40 with isotype control)": 10.8},
      {"binder": "B6", "B cell proliferation (see Example 3)": 3.6},
      {"binder": "B7", "B cell proliferation (see Example 3)": 2.3},
      {"binder": "B3", "B cell proliferation (see Example 3)": 0.7, "DC activation (index: IL-12p40 with antibody divided by IL-12p40 with isotype control)": 22.3}
    ]}
  ]
}
